According to article PMC7854685, “Histone Parylation factor 1 contributes to the inhibition of PARP1 by cancer drugs” (Nature Communications, 2021):

How the values were obtained:
[1] = target: PARP1 - Nuc165 complex (Alexa488-labelled PARP1 bound to a recombinant nucleosome with DNA linker ends of 7 and 11 base pairs) (UniProt P09874); assay: FRET or BRET; as a1 but with olaparib (1 uM): Alexa647-HPF1 titrated into Alexa488-PARP1 premixed with Nuc165 (20 nM) and olaparib; binding buffer
[2] = target: PARP1 - Nuc165 complex (Alexa488-labelled PARP1 bound to a recombinant nucleosome with DNA linker ends of 7 and 11 base pairs) (UniProt P09874); assay: FRET or BRET; Alexa647-HPF1 (0.6-10,000 nM, […] dilutions) titrated into Alexa488-PARP1 premixed with Nuc165 (20 nM) and DMSO (control, no olaparib); binding buffer 50 mM Tris-HCl pH 8.0, 50 mM NaCl, 1 mM MgCl2, 0.1 mM EDTA, 0.01% IGEPAL; 384-well plate

PARP1 - Nuc165 complex (Alexa488-labelled PARP1 bound to a recombinant nucleosome with DNA linker ends of 7 and 11 base pairs), sequence (P09874 whole entry, looked up, one chain of several): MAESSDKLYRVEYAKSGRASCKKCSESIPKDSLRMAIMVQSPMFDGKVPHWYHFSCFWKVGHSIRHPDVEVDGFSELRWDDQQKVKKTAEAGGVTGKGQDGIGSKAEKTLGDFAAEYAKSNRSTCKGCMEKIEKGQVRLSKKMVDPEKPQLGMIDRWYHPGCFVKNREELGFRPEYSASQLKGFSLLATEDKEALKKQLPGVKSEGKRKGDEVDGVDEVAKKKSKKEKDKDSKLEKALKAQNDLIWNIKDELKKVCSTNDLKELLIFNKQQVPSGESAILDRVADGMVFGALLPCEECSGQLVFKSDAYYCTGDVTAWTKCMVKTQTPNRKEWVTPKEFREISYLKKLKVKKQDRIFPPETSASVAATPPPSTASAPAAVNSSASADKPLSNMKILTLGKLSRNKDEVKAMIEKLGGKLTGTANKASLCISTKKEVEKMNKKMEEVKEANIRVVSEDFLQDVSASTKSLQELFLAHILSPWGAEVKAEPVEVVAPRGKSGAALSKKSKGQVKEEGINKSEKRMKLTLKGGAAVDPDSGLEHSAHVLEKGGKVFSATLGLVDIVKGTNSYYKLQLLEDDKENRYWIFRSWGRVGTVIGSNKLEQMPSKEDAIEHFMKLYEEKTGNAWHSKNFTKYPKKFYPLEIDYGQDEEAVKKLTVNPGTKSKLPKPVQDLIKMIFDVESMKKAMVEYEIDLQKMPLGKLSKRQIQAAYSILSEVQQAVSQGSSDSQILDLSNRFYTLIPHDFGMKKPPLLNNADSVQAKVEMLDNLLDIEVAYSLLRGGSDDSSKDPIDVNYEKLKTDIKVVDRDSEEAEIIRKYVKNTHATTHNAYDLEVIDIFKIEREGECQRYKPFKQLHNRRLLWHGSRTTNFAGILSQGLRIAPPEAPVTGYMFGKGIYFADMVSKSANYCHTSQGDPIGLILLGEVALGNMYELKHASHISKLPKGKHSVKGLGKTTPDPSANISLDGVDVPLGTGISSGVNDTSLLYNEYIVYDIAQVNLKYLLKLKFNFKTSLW

Kd [1]: 229 nM | Kd [2]: 790 nM
B1: Histone PARylation factor 1 (HPF1), labelled with Alexa647 (natural protein)
chain: LRKEVENHYKLSLPEDFYHFWKFCEELDPEKPSDSLSASLGLQLVGPYDILAGKHKTKKKSTGLNFNLHWRFYYDPPEFQTIIIGDNKTQYHMGYFRDSPDEFPVYVGINEAKKNCIIVPNGDNVFAAVKLFLTKKLREITDKKKINLLKNIDEKLTEAARELGYSLEQRTVKMKQRDKKVVTKTFHGAGLVVPVDKNDVGYRELPETDADLKRICKTIVEAASDEERLKAFAPIQEMMTFVQFANDECDYGMGLELGMDLFCYGSHYFHKVAGQLLPLAYNLLKRNLFAEIIEEHLANRSQENIDQLAA
modifications: Alexa647 C2 maleimide label (extent of labeling typically 50-100%)
